Tests used:
[1] = biological target: T1, streptavidin (SA chip surface) (UniProt P22629 37-163, limits assumed); test: SPR, Biacore 3000, streptavidin-coated chip
T1 construct: Commercial chip coating; the construct is not described; also called streptavidin-coated chip

[2] = biological target: the molecule itself; test: circular dichroism, concentration dependence of MRE222 in PBS fitted for dimerization (coiled-coil self-association)

T1 sequence (P22629 37-163 limits assumed): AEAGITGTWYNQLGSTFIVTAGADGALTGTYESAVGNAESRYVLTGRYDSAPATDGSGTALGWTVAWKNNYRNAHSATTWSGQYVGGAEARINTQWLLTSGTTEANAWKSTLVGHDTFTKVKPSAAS

B1: PF4ZIP (peptide)
peptide: CGGRMKQLEDKVKKLLKKNYHLENEVARLKKLVG
notes: The entry is the single chain; the Kd is for its self-association into a coiled-coil dimer; also called PF4ZIP peptide
Question: What does the source list for B1?
Answer: binding result [1]: no binding; Kd [2]: 3.48 µM
